Experimental data taken from patent US20230056252A1 (Gilead, published 2023).
Substitutions are numbered along the chain they refer to. In names and notes the source's numbering stands.

B1: hPGT121.66 AAS + W/huSP34.3.8 scFv AAS + SAV + R (bispecific antibody, human IgG1, lambda, L234A L235A)
chain: EVQLVESGGGLVQPGGSLRLSCAASGFTFNTYAMNWVRQAPGKGLEWVGRIRSKYNNYATYYADSVKGRFTISRDDSKNSLYLQMNSLRTEDTAVYYCVRHGNFGHSYVSWFAYWGQGTLVTVSSGGGGSGGGGSGGGGSGGGGSQAVVTQEPSLTVSPGGTVTLTCGSSTGAVTTGHYANWVQQKPGQAPRGLIGGTNKRAPGVPARFSGSLLGGKAALTISGAQPEDEAEYYCALWYSNRWVFGGGTKLTVLEPKSSDKTHTCPPCPAPEAAGGPSVFLFPPKPKDTLMISRTPEVTCVVVDVSHEDPEVKFNWYVDGVEVHNAKTKPREEQYNSTYRVVSVLTVLHQDWLNGKEYKCKVSNKALPASIEKTISKAKGQPREPQVYTLPPSREEMTKNQVSLSCAVKGFYPSDIAVEWESNGQPENNYKTTPPVLDSDGSFFLVSKLTVDKSRWQQGNVFSCSVMHEALHNRYTQKSLSLSPGK
heavy: QMQLQESGPGLVKPSETLSLTCSVSGASISDSYWSWIRRSPGKGLEWIGYVHKSGDTNYNPSLKSRVHLSLDTSKNQVSLSLTGVTAADSGKYYCARTLHGRRIYGIVAFNEWFTYFYMDVWGTGTQVTVSSASTKGPSVFPLAPSSKSTSGGTAALGCLVKDYFPEPVTVSWNSGALTSGVHTFPAVLQSSGLYSLSSVVTVPSSSLGTQTYICNVNHKPSNTKVDKKVEPKSCDKTHTCPPCPAPEAAGGPSVFLFPPKPKDTLMISRTPEVTCVVVDVSHEDPEVKFNWYVDGVEVHNAKTKPREEQYNSTYRVVSVLTVLHQDWLNGKEYKCKVSNKALPASIEKTISKAKGQPREPQVYTLPPSREEMTKNQVSLWCLVKGFYPSDIAVEWESNGQPENNYKTTPPVLDSDGSFFLYSKLTVDKSRWQQGNVFSCSVMHEALHNHYTQKSLSLSPGK
light: not shown
B2: hPGT121.66 AAS + W/huSP34.34.3 scFv AAS + SAV + R (bispecific antibody, human IgG1, lambda, L234A L235A)
chain: not shown
heavy: B1 heavy
light: not shown
B3: hPGT121.66 AAS + W/huSP34.34.11 scFv AAS + SAV + R (bispecific antibody, human IgG1, lambda, L234A L235A)
chain: B1 chain with D64A, R89K, V95M, I222L, R242L
heavy: B1 heavy
light: not shown
B4: hPGT121.66 AAS + W/huSP34.34.10 scFv AAS + SAV + R (bispecific antibody, human IgG1, lambda, L234A L235A)
chain: B1 chain with D64A, R89K, V95M, E152P, L214S
heavy: B1 heavy
light: not shown
B5: hPGT121.66 AAS + W/huSP34.3.13scFv AAS + SAV + R (bispecific antibody, human IgG1, lambda, L234A L235A)
chain: B1 chain with N199S, K200N
heavy: B1 heavy
light: not shown
B6: hPGT121.66 AAS + W/huSP34.13.8 scFv AAS + SAV + R (bispecific antibody, human IgG1, lambda, L234A L235A)
chain: B1 chain with N30S, D64A, S80T
heavy: B1 heavy
light: not shown
notes: also called 261
B7: hPGT121.66 AAS + W/huSP34.34.12scFv AAS + SAV + R (bispecific antibody, human IgG1, lambda, L234A L235A)
chain: B1 chain with D64A, R89K, V95M, E152P, G204W, V205T, L214S
heavy: B1 heavy
light: not shown
B8: huSP34.3.2 Fab-HF (Fab, V domains shown)
VH: EVQLVESGGGLVQPGGSLRLSCAASGFTFNTYAMNWVRQAPGKGLEWVGRIRSKYNNYATYYADSVKGRFTISRDDSKNSLYLQMNSLRTEDTAVYYCVRHGNFGHSYVSWFAYWGQGTLVTVSS
VL: QAVVTQEPSLTVSPGGTVTLTCGSSTGAVTTSNYANWVQQKPGQAPRGLIGGTSNRAPWTPARFSGSLLGGKAALTLSGAQPEDEAEYYCALWYSNLWVFGGGTKLTVL
B9: huSP34.4.6 Fab-HF (Fab, V domains shown)
VH: B8 VH with N30S, D64A, Y114V
VL: B8 VL with E7P, S32G, N33H, W59G, T60V, L69S, L77I, N96A, L97R
B10: huSP34.4.1 Fab-HF (Fab, V domains shown)
VH: B8 VH with N30S, D64A, Y114V
VL: B8 VL with G23R, S54N, N55K, L69I, G71D
B11: huSP34.3.5 Fab-HF (Fab, V domains shown)
VH: B8 VH
VL: B8 VL with S32G, N33H, N96A, L97R
B12: mSP34 Fab-HF (Fab, V domains shown)
VH: EVKLLESGGGLVQPKGSLKLSCAASGFTFNTYAMNWVRQAPGKGLEWVARIRSKYNNYATYYADSVKDRFTISRDDSQSILYLQMNNLKTEDTAMYYCVRHGNFGNSYVSWFAYWGQGTLVTVSA
VL: QAVVTQESALTTSPGETVTLTCRSSTGAVTTSNYANWVQEKPDHLFTGLIGGTNKRAPGVPARFSGSLIGDKAALTITGAQTEDEAIYFCALWYSNLWVFGGGTKLTVLG
notes: also called mSP34 chimeric Fab
B13: huSP34.26.8 scFv AAS + SAV + R (Fc fusion)
chain: B1 chain with R19S, N30S, T60A, D64A, S80T
notes: also called R19S, T57A; R19S + T57A
B14: huSP34.14.8 scFv AAS + SAV + R (Fc fusion)
chain: B1 chain with R19S, N30S, D64A, S80T
notes: also called R19S
B15: huSP34.19.8 scFv AAS + SAV + R (Fc fusion)
chain: B1 chain with N30S, D64A, S80T, Q84E
notes: also called Q81E
B16: huSP34.25.8 scFv AAS + SAV + R (Fc fusion)
chain: B1 chain with N30S, T60A, D64A, G68S, S80T
notes: also called T57A, G65S; T57A + G65S

molecular target: CD3 on rhesus monkey T cells in PBMCs (rhesus monkey); experiment: flow cytometry on PBMCs, % anti-huIgG+ CD4+ cells, donor rh 3483
Sequence (P16003 26-458): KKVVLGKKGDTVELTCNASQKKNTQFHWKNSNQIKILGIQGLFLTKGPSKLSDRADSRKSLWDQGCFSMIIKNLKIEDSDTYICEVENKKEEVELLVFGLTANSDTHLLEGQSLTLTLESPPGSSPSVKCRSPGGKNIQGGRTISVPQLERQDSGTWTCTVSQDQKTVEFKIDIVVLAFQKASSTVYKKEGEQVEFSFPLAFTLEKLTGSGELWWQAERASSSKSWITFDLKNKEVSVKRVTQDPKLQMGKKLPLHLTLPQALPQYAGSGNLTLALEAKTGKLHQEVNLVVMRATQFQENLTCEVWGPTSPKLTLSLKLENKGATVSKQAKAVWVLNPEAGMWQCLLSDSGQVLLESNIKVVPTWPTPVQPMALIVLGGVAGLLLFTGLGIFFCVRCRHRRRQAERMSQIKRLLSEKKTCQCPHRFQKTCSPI

Compared with B1, B2 is 46-fold higher in EC50: 0.02 µg/mL for the first, 0.93 µg/mL for the second.

First: B3
Second: B4
The EC50 of the first is 2-fold higher: 0.06 µg/mL for the first, 0.03 µg/mL for the second.

B5 and B6 are within 1.5-fold of each other in EC50: 0.06 µg/mL for the first, 0.07 µg/mL for the second.

B7 was tested, and the EC50 was 0.46 µg/mL.

molecular target: T1, CD3 expressed on cell-surface of primary human T cells (human, UniProt P07766 23-207; P04234 22-171); experiment: flow cytometry competition vs murine SP34-AF488 on human T cells, average
T1 construct: also called cell-surface CD3; human CD3
T1 sequence (P07766 23-207 limits assumed, chain 1 of 2): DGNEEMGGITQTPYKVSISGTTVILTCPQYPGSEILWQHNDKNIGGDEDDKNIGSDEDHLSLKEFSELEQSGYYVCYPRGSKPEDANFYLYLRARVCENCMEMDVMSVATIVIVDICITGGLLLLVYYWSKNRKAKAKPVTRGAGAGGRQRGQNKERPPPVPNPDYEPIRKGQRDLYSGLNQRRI
T1 sequence (P04234 22-171 limits assumed, chain 2 of 2): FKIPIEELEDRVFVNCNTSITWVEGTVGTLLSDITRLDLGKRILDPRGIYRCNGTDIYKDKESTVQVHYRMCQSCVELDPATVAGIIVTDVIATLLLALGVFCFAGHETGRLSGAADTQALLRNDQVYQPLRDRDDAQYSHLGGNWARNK
Protocol: (§1) Binding of humanized SP34 Fab variants to CD3 expressed on cell-surface of primary human T cells was evaluated in a flow cytometry-based competition assay.

B8 and B9 are within 1.5-fold of each other in IC50: 9.19 µg/mL for the first, 11.4 µg/mL for the second.

B10 and B11 are within 1.5-fold of each other in IC50: 7.74 µg/mL for the first, 11.4 µg/mL for the second.

B12 was tested, and the IC50 was 0.7 µg/mL.

molecular target: CD3 on rhesus monkey T cells in PBMCs (rhesus monkey); experiment: flow cytometry on PBMCs, % anti-huIgG+ CD8+ cells, donor rh 3563

First: B1
Second: B2
The EC50 of the first is 44-fold lower: 0.08 µg/mL for the first, 3.52 µg/mL for the second.

B3 and B4 are within 1.5-fold of each other in EC50: 0.22 µg/mL for the first, 0.16 µg/mL for the second.

B5 and B6 are within 1.5-fold of each other in EC50: 0.21 µg/mL for the first, 0.2 µg/mL for the second.

Binder B7 has an EC50 of 1.24 µg/mL.

molecular target: CD3 on rhesus monkey T cells in PBMCs (rhesus monkey); experiment: flow cytometry on PBMCs, % anti-huIgG+ CD4+ cells, donor rh 3563

Going from B1 to B2, the EC50 rises from 0.02 µg/mL to 1.48 µg/mL (74-fold).

B3 and B4 are within 1.5-fold of each other in EC50: 0.07 µg/mL for the first, 0.05 µg/mL for the second.

B5 and B6 are within 1.5-fold of each other in EC50: 0.08 µg/mL for the first, 0.07 µg/mL for the second.

With B7 the EC50 was 0.68 µg/mL.

molecular target: T1, CD3 expressed on cell-surface of …; experiment: flow cytometry on PBMCs, % anti-huIgG+ CD4+ cells, donor hu 151

First: B1
Second: B2
The EC50 of the first is 47-fold lower: 0.03 µg/mL for the first, 1.41 µg/mL for the second.

B3 and B4 are within 1.5-fold of each other in EC50: 0.08 µg/mL for the first, 0.06 µg/mL for the second.

B5 and B6 are within 1.5-fold of each other in EC50: 0.07 µg/mL for the first, 0.06 µg/mL for the second.

For B7, the EC50 was 0.51 µg/mL.

molecular target: T1, CD3 expressed on cell-surface of …; experiment: flow cytometry competition vs murine SP34-AF488 on human T cells, n = 2
Protocol: as §1

Going from B8 to B9, the IC50 falls from 6.44 µg/mL to 4.2 µg/mL (1.5-fold).

Going from B10 to B11, the IC50 rises from 5.9 µg/mL to 10 µg/mL (1.7-fold).

molecular target: T2, MabSelect SuRe (engineered Protein A); experiment: 500 ml Expi293 expression, MabSelect SuRe capture and cation exchange; purified homodimer yield relative to parent
T2 construct: also called MabSelect SuRe column
Protocol: 500 ml of Expi293 cells were transfected with 0.5 mg DNA encoding selected huSP34 scFv-Fc Protein A knockout variants according to manufacturer's protocol. Four days post transfection, the cell-free clarified supernatant was collected and loaded to a MabSelect™ SuRe™ (Cytiva Life Sciences) column. Afterwards the column was washed with a low salt buffer of 25 mM Tris HCl pH 7.5, 25 mM NaCl for 10 column volumes (CV), then high salt wash of 25 mM Tris HCl pH 7.5, 500 mM NaCl for 5CV to remove non-specific binding, and finally washed with a low salt wash of 25 mM Tris HCl pH 7.5, 25 mM NaCl for 10CV. To elute the antibody, an isocratic elution step of 100 mM sodium acetate pH 3.7 was performed. The eluted pool was neutralized to pH 6.0 with 1 M Tris HCl pH 9.0, and subjected to a cation ion purification, HiTrap SP HP (Cytiva Life Sciences) to further remove impurities. The cation captured protein was washed with 10 mM sodium phosphate pH 7.0 for 10CV, then eluted in 0-30% gradient of 10 mM sodium phosphate pH 7.0, 1M NaCl for 50CV to separate the desired two targeting arm antibody (heterodimer) from the one targeted arm antibody (homodimer). Followed with gradient elution from 30-100% of 10 mM sodium phosphate pH 7.0, 1 M NaCl for 10CV to remove aggregation or homodimer in higher isoelectric point (pI). All proteins were formulated into 20 mM histidine pH 5.8 by dialysis, added additive of sucrose/tween-80, sterile filtered, and stored at 4° C. Concentration of the formulated protein was measured by A280. Purity was assessed as percent monodispersed by analytical size-exclusion chromatography. Identity of the bispecific antibody was determined by Mass Spec (MS).

Compared with B13, B14 is higher in “scFv-Fc Homodimer Yield Relative to WT (e.g. Protein A binding)” value: 8% for the first, 21% for the second.

First: B15
Second: B16
The “scFv-Fc Homodimer Yield Relative to WT (e.g. Protein A binding)” value of the first is higher: 86% for the first, 1% for the second.

molecular target: T1, CD3 expressed on cell-surface of …; experiment: flow cytometry on PBMCs, % anti-huIgG+ CD8+ cells, donor hu 151
Protocol: (§2) Briefly, PBMCs from healthy human donors and healthy rhesus or cynomolgus monkey donors were incubated with different concentrations of HIV×CD3 bispecific molecules for 1 hour at RT. […] Cells were then washed, fixed/permeabilized, and analyzed on BD LSRFortessa. The percentage of α-huIgG-APC-positive CD4+ and CD8+ T cells and the mFI of the α-huIgG-APC of CD4+ and CD8+ cells were collected, and data analyzed using GraphPad Prism.

Going from B1 to B2, the EC50 rises from 0.04 µg/mL to 1.62 µg/mL (40-fold).

B3 and B4 are within 1.5-fold of each other in EC50: 0.1 µg/mL for the first, 0.07 µg/mL for the second.

B5 and B6 are within 1.5-fold of each other in EC50: 0.09 µg/mL for the first, 0.08 µg/mL for the second.

Work on B7 yielded an EC50 of 0.85 µg/mL.

molecular target: T1, CD3 expressed on cell-surface of …; experiment: flow cytometry competition vs murine SP34-AF488 on human T cells, average; remark: another data set of the same source
Protocol: as §1
A second round of huSP34 Fab variants were characterized using the same flow cytometry-based competition assay as described above.

B12 was tested, and the IC50 was 0.68 µg/mL.

molecular target: T1, CD3 expressed on cell-surface of …; experiment: flow cytometry on PBMCs, % anti-huIgG+ CD4+ cells, donor hu 340
Protocol: as §2

First: B1
Second: B2
The EC50 of the first is 33-fold lower: 0.05 µg/mL for the first, 1.64 µg/mL for the second.

First: B3
Second: B4
The EC50 of the first is 1.5-fold higher: 0.09 µg/mL for the first, 0.06 µg/mL for the second.

B5 and B6 are within 1.5-fold of each other in EC50: 0.1 µg/mL for the first, 0.07 µg/mL for the second.

Work on B7 yielded an EC50 of 0.57 µg/mL.

molecular target: T1, CD3 expressed on cell-surface of …; experiment: flow cytometry competition vs murine SP34-AF488 on human T cells, n = 1
Protocol: as §1

Going from B8 to B9, the IC50 rises from 11.9 µg/mL to 18.5 µg/mL (1.6-fold).

B10 and B11 are within 1.5-fold of each other in IC50: 9.57 µg/mL for the first, 12.9 µg/mL for the second.

molecular target: CD3 on rhesus monkey T cells in PBMCs (rhesus monkey); experiment: flow cytometry on PBMCs, % anti-huIgG+ CD8+ cells, donor rh 3483

Going from B1 to B2, the EC50 rises from 0.04 µg/mL to 2.35 µg/mL (59-fold).

B3 and B4 are within 1.5-fold of each other in EC50: 0.11 µg/mL for the first, 0.1 µg/mL for the second.

B5 and B6 are within 1.5-fold of each other in EC50: 0.11 µg/mL for the first, 0.13 µg/mL for the second.

With B7 the EC50 was 0.93 µg/mL.

molecular target: T1, CD3 expressed on cell-surface of …; experiment: flow cytometry on PBMCs, % anti-huIgG+ CD8+ cells, donor hu 340
Protocol: as §2

First: B1
Second: B2
The EC50 of the first is 20-fold lower: 0.06 µg/mL for the first, 1.21 µg/mL for the second.

First: B3
Second: B4
The EC50 of the first is 1.6-fold higher: 0.13 µg/mL for the first, 0.08 µg/mL for the second.

B5 and B6 are within 1.5-fold of each other in EC50: 0.14 µg/mL for the first, 0.1 µg/mL for the second.

B7 showed an EC50 of 0.88 µg/mL.
